Measurements taken from patent US20180311359A1 (TRACON PHARMACEUTICALS, published 2018).

Tests used:
CD105 (endoglin) [1] = target: T1, CD105 (endoglin) (UniProt P17813 26-586, limits assumed); test: CD105 binding ELISA; F05 (pH 4.0, 20 mM acetate, 240 mM trehalose, 50 mg/ml), 5 C, initial
T1 construct: Soluble protein captured on the plate
T1 sequence (looked up): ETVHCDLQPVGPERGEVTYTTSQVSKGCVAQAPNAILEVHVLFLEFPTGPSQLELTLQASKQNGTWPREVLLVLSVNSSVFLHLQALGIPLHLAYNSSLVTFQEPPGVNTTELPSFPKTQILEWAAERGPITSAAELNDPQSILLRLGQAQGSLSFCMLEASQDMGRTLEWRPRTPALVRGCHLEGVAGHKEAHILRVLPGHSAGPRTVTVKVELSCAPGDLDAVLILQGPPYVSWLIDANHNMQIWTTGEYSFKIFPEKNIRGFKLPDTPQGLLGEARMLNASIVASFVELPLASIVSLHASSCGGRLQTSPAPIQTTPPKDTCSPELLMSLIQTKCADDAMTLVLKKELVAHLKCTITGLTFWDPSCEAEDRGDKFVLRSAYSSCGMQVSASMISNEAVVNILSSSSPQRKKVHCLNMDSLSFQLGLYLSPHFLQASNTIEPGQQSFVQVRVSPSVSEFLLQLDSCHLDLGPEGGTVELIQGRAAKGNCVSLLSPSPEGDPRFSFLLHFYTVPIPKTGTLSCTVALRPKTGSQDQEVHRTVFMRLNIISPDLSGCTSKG

CD105 (endoglin) [2] = target: T1, CD105 (endoglin); test: CD105 binding ELISA; F04 (pH 5.5, 20 mM histidine, 240 mM trehalose, 50 mg/ml), 5 C, 6 months
CD105 (endoglin) [3] = target: T1, CD105 (endoglin); test: CD105 binding ELISA; TRC105 4 mg/mL in 17 mM phosphate, 145 mM NaCl, pH 7.2 (Lot FIN-0536), 2-8 C, initial
CD105 (endoglin) [4] = target: T1, CD105 (endoglin); test: CD105 binding ELISA; TRC105 4 mg/mL in 17 mM phosphate, 145 mM NaCl, pH 7.2 (Lot FIN-0536), 25 C/60% RH, 1 month
CD105 (endoglin) [5] = target: T1, CD105 (endoglin); test: CD105 binding ELISA; F06 (pH 5.5, 20 mM histidine, 240 mM trehalose, 100 mg/ml), 5 C, initial
CD105 (endoglin) [6] = target: T1, CD105 (endoglin); test: CD105 binding ELISA; F04 (pH 5.5, 20 mM histidine, 240 mM trehalose, 50 mg/ml), 5 C, initial
CD105 (endoglin) [7] = target: T1, CD105 (endoglin); test: CD105 binding ELISA; F02 (pH 5.5, 20 mM histidine, 240 mM sorbitol, 25 mg/ml), 5 C, 6 months
CD105 (endoglin) [8] = target: T1, CD105 (endoglin); test: CD105 binding ELISA; F03 (pH 4.0, 20 mM acetate, 240 mM sorbitol, 25 mg/ml), 5 C, initial
CD105 (endoglin) [9] = target: T1, CD105 (endoglin); test: CD105 binding ELISA; F03 (pH 4.0, 20 mM acetate, 240 mM sorbitol, 25 mg/ml), 5 C, 12 months
CD105 (endoglin) [10] = target: T1, CD105 (endoglin); test: CD105 binding ELISA; F02 (pH 5.5, 20 mM histidine, 240 mM sorbitol, 25 mg/ml), 5 C, initial
CD105 (endoglin) [11] = target: T1, CD105 (endoglin); test: CD105 binding ELISA; F01 (pH 5.5, 20 mM histidine, 240 mM trehalose, 25 mg/ml), 5 C, 6 months
CD105 (endoglin) [12] = target: T1, CD105 (endoglin); test: CD105 binding ELISA; TRC105 4 mg/mL in 17 mM phosphate, 145 mM NaCl, pH 7.2 (Lot FIN-0536), 2-8 C, 6 months
CD105 (endoglin) [13] = target: T1, CD105 (endoglin); test: CD105 binding ELISA; TRC105 4 mg/mL in 17 mM phosphate, 145 mM NaCl, pH 7.2 (Lot FIN-0536), 2-8 C, 12 months
CD105 (endoglin) [14] = target: T1, CD105 (endoglin); test: CD105 binding ELISA; TRC105 4 mg/mL in 17 mM phosphate, 145 mM NaCl, pH 7.2 (Lot FIN-0536), 2-8 C, 9 months
CD105 (endoglin) [15] = target: T1, CD105 (endoglin); test: CD105 binding ELISA; F01 (pH 5.5, 20 mM histidine, 240 mM trehalose, 25 mg/ml), 5 C, 12 months
CD105 (endoglin) [16] = target: T1, CD105 (endoglin); test: CD105 binding ELISA; F02 (pH 5.5, 20 mM histidine, 240 mM sorbitol, 25 mg/ml), 5 C, 12 months
CD105 (endoglin) [17] = target: T1, CD105 (endoglin); test: CD105 binding ELISA; F07 (pH 4.0, 20 mM acetate, 240 mM trehalose, 100 mg/ml), 5 C, 12 months
CD105 (endoglin) [18] = target: T1, CD105 (endoglin); test: CD105 binding ELISA; F06 (pH 5.5, 20 mM histidine, 240 mM trehalose, 100 mg/ml), 5 C, 12 months
CD105 (endoglin) [19] = target: T1, CD105 (endoglin); test: CD105 binding ELISA; TRC105 4 mg/mL in 17 mM phosphate, 145 mM NaCl, pH 7.2 (Lot FIN-0536), 2-8 C, 24 months
CD105 (endoglin) [20] = target: T1, CD105 (endoglin); test: CD105 binding ELISA; F01 (pH 5.5, 20 mM histidine, 240 mM trehalose, 25 mg/ml), 5 C, initial
CD105 (endoglin) [21] = target: T1, CD105 (endoglin); test: CD105 binding ELISA; TRC105 4 mg/mL in 17 mM phosphate, 145 mM NaCl, pH 7.2 (Lot FIN-0536), 2-8 C, 30 months
CD105 (endoglin) [22] = target: T1, CD105 (endoglin); test: CD105 binding ELISA; TRC105 4 mg/mL in 17 mM phosphate, 145 mM NaCl, pH 7.2 (Lot FIN-0536), 2-8 C, 18 months
CD105 (endoglin) [23] = target: T1, CD105 (endoglin); test: CD105 binding ELISA; TRC105 4 mg/mL in 17 mM phosphate, 145 mM NaCl, pH 7.2 (Lot FIN-0536), 2-8 C, 36 months
CD105 (endoglin) [24] = target: T1, CD105 (endoglin); test: CD105 binding ELISA; TRC105 4 mg/mL in 17 mM phosphate, 145 mM NaCl, pH 7.2 (Lot FIN-0536), 25 C/60% RH study, initial (same initial value as in Table 18)
CD105 (endoglin) [25] = target: T1, CD105 (endoglin); test: CD105 binding ELISA; F06 (pH 5.5, 20 mM histidine, 240 mM trehalose, 100 mg/ml), 5 C, 6 months
CD105 (endoglin) [26] = target: T1, CD105 (endoglin); test: CD105 binding ELISA; F04 (pH 5.5, 20 mM histidine, 240 mM trehalose, 50 mg/ml), 5 C, 12 months
CD105 (endoglin) [27] = target: T1, CD105 (endoglin); test: CD105 binding ELISA; F05 (pH 4.0, 20 mM acetate, 240 mM trehalose, 50 mg/ml), 5 C, 12 months
CD105 (endoglin) [28] = target: T1, CD105 (endoglin); test: CD105 binding ELISA; F07 (pH 4.0, 20 mM acetate, 240 mM trehalose, 100 mg/ml), 5 C, initial

Percent Relative CD105 Binding Potency (CD105 (endoglin) [1]): 179 % relative to reference standard | Percent Relative CD105 Binding Potency (CD105 (endoglin) [2]): 97 % relative to reference standard | CD105 Binding by ELISA (binding activity relative to reference standard) (CD105 (endoglin) [3]): 88 % relative to reference standard | CD105 Binding by ELISA (binding activity relative to reference standard) (CD105 (endoglin) [4]): 91 % relative to reference standard | Percent Relative CD105 Binding Potency (CD105 (endoglin) [5]): 93 % relative to reference standard | Percent Relative CD105 Binding Potency (CD105 (endoglin) [6]): 123 % relative to reference standard | Percent Relative CD105 Binding Potency (CD105 (endoglin) [7]): 90 % relative to reference standard | Percent Relative CD105 Binding Potency (CD105 (endoglin) [8]): 124 % relative to reference standard | Percent Relative CD105 Binding Potency (CD105 (endoglin) [9]): 77 % relative to reference standard | Percent Relative CD105 Binding Potency (CD105 (endoglin) [10]): 90 % relative to reference standard | Percent Relative CD105 Binding Potency (CD105 (endoglin) [11]): 94 % relative to reference standard | CD105 Binding by ELISA (binding activity relative to reference standard) (CD105 (endoglin) [12]): 110 % relative to reference standard | CD105 Binding by ELISA (binding activity relative to reference standard) (CD105 (endoglin) [13]): 91 % relative to reference standard | CD105 Binding by ELISA (binding activity relative to reference standard) (CD105 (endoglin) [14]): 104 % relative to reference standard | Percent Relative CD105 Binding Potency (CD105 (endoglin) [15]): 68 % relative to reference standard | Percent Relative CD105 Binding Potency (CD105 (endoglin) [16]): 69 % relative to reference standard | Percent Relative CD105 Binding Potency (CD105 (endoglin) [17]): 86 % relative to reference standard | Percent Relative CD105 Binding Potency (CD105 (endoglin) [18]): 115 % relative to reference standard | CD105 Binding by ELISA (binding activity relative to reference standard) (CD105 (endoglin) [19]): 136 % relative to reference standard | Percent Relative CD105 Binding Potency (CD105 (endoglin) [20]): 101 % relative to reference standard | CD105 Binding by ELISA (binding activity relative to reference standard) (CD105 (endoglin) [21]): 88 % relative to reference standard | CD105 Binding by ELISA (binding activity relative to reference standard) (CD105 (endoglin) [22]): 88 % relative to reference standard | CD105 Binding by ELISA (binding activity relative to reference standard) (CD105 (endoglin) [23]): 105 % relative to reference standard | CD105 Binding by ELISA (binding activity relative to reference standard) (CD105 (endoglin) [24]): 88 % relative to reference standard | Percent Relative CD105 Binding Potency (CD105 (endoglin) [25]): 95 % relative to reference standard | Percent Relative CD105 Binding Potency (CD105 (endoglin) [26]): 74 % relative to reference standard | Percent Relative CD105 Binding Potency (CD105 (endoglin) [27]): 96 % relative to reference standard | Percent Relative CD105 Binding Potency (CD105 (endoglin) [28]): 100 % relative to reference standard
B1: TRC105 (an anti-CD105 antibody) (antibody, human IgG1, kappa, V domains shown)
VH: EVKLEESGGGLVQPGGSMKLSCAASGFTFSDAWMDWVRQSPEKGLEWVAEIRSKASNHATYYAESVKGRFTISRDDSKSSVYLQMNSLRAEDTGIYYCTRWRRFFDSWGQGTTLTVSS
VL: QIVLSQSPAILSASPGEKVTMTCRASSSVSYMHWYQQKPGSSPKPWIYATSNLASGVPVRFSGSGSGTSYSLTISRVEAEDAATYYCQQWSSNPLTFGAGTKLELKR
notes: each chain is built here as variable plus constant region; The same antibody was tested in different formulations and after different storage times; also called Lot FIN-0536
